{"source": "patent US20170304457A1", "about": "(MIT, published 2017)", "test_in_all_cases": "cell-based or functional assay", "key": {"P-2NLP-P": {"target": "P-2NLP-P", "sequence (chain, as listed by the source)": "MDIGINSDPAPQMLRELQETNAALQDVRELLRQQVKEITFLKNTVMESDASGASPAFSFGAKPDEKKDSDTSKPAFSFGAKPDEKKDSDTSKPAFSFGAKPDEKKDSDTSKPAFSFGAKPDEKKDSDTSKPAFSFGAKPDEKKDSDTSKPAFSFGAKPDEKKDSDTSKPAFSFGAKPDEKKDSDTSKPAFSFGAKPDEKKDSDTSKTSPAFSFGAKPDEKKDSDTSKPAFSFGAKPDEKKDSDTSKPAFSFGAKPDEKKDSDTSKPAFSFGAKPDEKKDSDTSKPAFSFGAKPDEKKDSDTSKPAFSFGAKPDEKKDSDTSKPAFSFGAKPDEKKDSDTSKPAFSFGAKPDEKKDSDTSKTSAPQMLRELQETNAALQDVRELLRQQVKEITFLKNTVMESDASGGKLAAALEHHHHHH"}, "P-1NLP-P": {"target": "P-1NLP-P", "sequence (chain, as listed by the source)": "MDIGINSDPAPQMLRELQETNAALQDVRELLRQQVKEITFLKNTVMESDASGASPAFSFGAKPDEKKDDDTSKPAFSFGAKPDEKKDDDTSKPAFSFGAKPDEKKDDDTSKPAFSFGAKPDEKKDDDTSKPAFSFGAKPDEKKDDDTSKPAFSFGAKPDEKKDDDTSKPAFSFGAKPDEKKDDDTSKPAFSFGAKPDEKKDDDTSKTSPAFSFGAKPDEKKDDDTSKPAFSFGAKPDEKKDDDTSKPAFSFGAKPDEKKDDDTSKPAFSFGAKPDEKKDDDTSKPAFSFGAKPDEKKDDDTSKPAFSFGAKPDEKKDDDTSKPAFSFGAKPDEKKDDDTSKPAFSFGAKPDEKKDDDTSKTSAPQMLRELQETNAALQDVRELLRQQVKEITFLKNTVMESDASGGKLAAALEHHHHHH"}, "P-cNsp1-P": {"target": "P-cNsp1-P", "sequence (chain, as listed by the source)": "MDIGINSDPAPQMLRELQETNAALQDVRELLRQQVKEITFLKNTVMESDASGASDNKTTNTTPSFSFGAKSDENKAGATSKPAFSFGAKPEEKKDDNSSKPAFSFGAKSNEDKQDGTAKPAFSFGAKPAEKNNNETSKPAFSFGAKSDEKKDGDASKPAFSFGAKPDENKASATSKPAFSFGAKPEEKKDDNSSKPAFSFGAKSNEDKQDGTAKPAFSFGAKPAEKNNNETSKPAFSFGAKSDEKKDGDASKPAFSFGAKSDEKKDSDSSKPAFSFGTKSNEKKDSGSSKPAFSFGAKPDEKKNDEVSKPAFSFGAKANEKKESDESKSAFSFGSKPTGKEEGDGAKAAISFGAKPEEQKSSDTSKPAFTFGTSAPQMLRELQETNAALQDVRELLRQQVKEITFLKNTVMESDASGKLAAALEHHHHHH"}}}
{"binder": "importin β (receptor, UniProt Q06142 1-861, looked up, not shown: small tags and cut ends) MSTAEFAQLLENSILSPDQNIRLTSETQLKKLSNDNFLQFAGLSSQVLIDENTKLEGRILAALTLKNELVSKDSVKTQQFAQRWITQVSPEAKNQIKTNALTALVSIEPRIANAAAQLIAAIADIELPHGAWPELMKIMVDNTGAEQPENVKRASLLALGYMCESADPQSQALVSSSNNILIAIVQGAQSTETSKAVRLAALNALADSLIFIKNNMEREGERNYLMQVVCEATQAEDIEVQAAAFGCLCKIMSLYYTFMKPYMEQALYALTIATMKSPNDKVASMTVEFWSTICEEEIDIAYELAQFPQSPLQSYNFALSSIKDVVPNLLNLLTRQNEDPEDDDWNVSMSAGACLQLFAQNCGNHILEPVLEFVEQNITADNWRNREAAVMAFGSIMDGPDKVQRTYYVHQALPSILNLMNDQSLQVKETTAWCIGRIADSVAESIDPQQHLPGVVQACLIGLQDHPKVATNCSWTIINLVEQLAEATPSPIYNFYPALVDGLIGAANRIDNEFNARASAFSALTTMVEYATDTVAETSASISTFVMDKLGQTMSVDENQLTLEDAQSLQELQSNILTVLAAVIRKSPSSVEPVADMLMGLFFRLLEKKDSAFIEDDVFYAISALAASLGKGFEKYLETFSPYLLKALNQVDSPVSITAVGFIADISNSLEEDFRRYSDAMMNVLAQMISNPNARRELKPAVLSVFGDIASNIGADFIPYLNDIMALCVAAQNTKPENGTLEALDYQIKVLEAVLDAYVGIVAGLHDKPEALFPYVGTIFQFIAQVAEDPQLYSEDATSRAAVGLIGDIAAMFPDGSIKQFYGQDWVIDYIKRTRSGQLFSQATKDTARWAREQQKRQLSL", "values": [{"measurement": "absorption of cargo-importin β complexes by the hydrogel relative to inert molecules in an hour (capillary transport assay, 20 w/v % gel)", "setting": "P-2NLP-P", "value": "3.8 times more than inert molecules"}, {"measurement": "accumulated green fluorescence intensity compared to the intensity without importin β, relative to the P-1NLP-P gel", "setting": "P-2NLP-P", "value": "~2 fold of P-1NLP-P gel"}, {"measurement": "accumulation of cargo-carrier complexes in the gel relative to MBP-mCherry (no IBB domain) over three hours, 10 w/v % gel", "setting": "P-2NLP-P", "value": "5.2 times more than MBP-mCherry"}, {"measurement": "accumulation of cargo-carrier complexes in the gel relative to MBP-mCherry (no IBB domain) over three hours, 20 w/v % gel", "setting": "P-2NLP-P", "value": "10.2 times more than MBP-mCherry"}, {"measurement": "accumulation of cargo-carrier complexes relative to MBP-mCherry (without the IBB domain) over an hour, 20 w/v % gel", "setting": "P-2NLP-P", "value": "5.3 times more than MBP-mCherry"}, {"measurement": "absorption of cargo-importin β complexes by the hydrogel relative to inert molecules in an hour (capillary transport assay, 20 w/v % gel)", "setting": "P-1NLP-P", "value": "2.3 times more than inert molecules"}, {"measurement": "accumulation of cargo-carrier complexes relative to MBP-mCherry (without the IBB domain) over an hour, 20 w/v % gel", "setting": "P-1NLP-P", "value": "3 times more than MBP-mCherry"}, {"measurement": "absorption of cargo-importin β complexes by the hydrogel relative to inert molecules in an hour (capillary transport assay, 20 w/v % gel)", "setting": "P-cNsp1-P", "value": "3.9 times more than inert molecules"}]}
